In the Human Domainome abundance scans (Beltran et al. 2025) one finds abundance fitness data, which are given here for 160 variants.

± gives the uncertainty stated by the source.

First the molecules themselves.
B1: Chromodomain-helicase-DNA-binding protein 4, residues 365 to 417; numbered along this chain, Q14839 (parent)
chain: YETDHQDYCEVCQQGGEIILCDTCPRAYHMVCLDPDMEKAPEGKWSCPHCEKE

Variants of B1 are the subject of this series. Nature of the series: abundance fitness (aPCA) (normalised: wild type 0, dead -1); higher = more abundant; growth selection in yeast, the domain comes from the species named. To be noted: Homo sapiens.
E53D: the abundance fitness is -0.551 ± 0.45.
The same measure for E53A: -0.207 ± 0.16; for E53W: 0.113 ± 0.22.
As for E53V, the abundance fitness is -0.356 ± 0.19.
The same measure for E53H: -0.378 ± 0.33; for E53I: -0.335 ± 0.39.
For E53N the value was -0.57 ± 0.38.
For E53L the value was -0.133 ± 0.32; for E53C, -0.263 ± 0.25; for E53S, -0.023 ± 0.16.
Turning to E53T, the abundance fitness was -0.717 ± 0.41.
For E53R the value was -0.04 ± 0.15; for E53Y, -0.323 ± 0.39.
The same measure for E53G: -0.252 ± 0.13; for K44E: 0.079 ± 0.14.
The same measure for K44R: 0.05 ± 0.097.
Regarding K44A, the abundance fitness was -0.017 ± 0.15.
Regarding K44P, the abundance fitness was 0.062 ± 0.14.
The same measure for K44L: -0.145 ± 0.1; for K44C: -0.152 ± 0.14; for K44I: -0.427 ± 0.3.
K44Y: the abundance fitness is -0.31 ± 0.18.
The same measure for K44H: -0.3 ± 0.21; for K44V: -0.109 ± 0.11; for K44W: 0.098 ± 0.12.
For the variant K44S, the abundance fitness amounted to 0.102 ± 0.11.
The same measure for K44F: -0.028 ± 0.16.
For K44M the value was -0.066 ± 0.12; for K44N, -0.373 ± 0.29.
The same measure for K44Q: 0.309 ± 0.13.
As for K44T, the abundance fitness was determined as 0.218 ± 0.15.
The same measure for K44G: 0.164 ± 0.095; for C50F: -0.567 ± 0.19; for C50R: -0.555 ± 0.098.
For C50I the value was -0.526 ± 0.28; for C50D, -0.17 ± 0.16.
For C50Y the value was -0.679 ± 0.15.
Regarding C50N, the abundance fitness is -0.313 ± 0.29.
The same measure for C50E: -0.366 ± 0.15; for C50K: -0.344 ± 0.17.
For C50T the value was -0.624 ± 0.2.
The same measure for C50S: -0.222 ± 0.11; for C50W: -0.619 ± 0.12.
On to C50L, for which the abundance fitness is -0.517 ± 0.14.
For C50Q the value was -0.767 ± 0.24; for C50M, -0.819 ± 0.22; for C50A, -0.271 ± 0.13.
Take P41Y: the abundance fitness came to 0.022 ± 0.19.
The same measure for P41C: -0.212 ± 0.14; for P41I: 0.055 ± 0.17; for P41T: -0.105 ± 0.16.
For P41N the value was 0.435 ± 0.23; for P41K, -0.015 ± 0.18; for P41L, -0.092 ± 0.1.
For the variant P41E, the abundance fitness turned out to be 0.07 ± 0.14.
For P41R the value was 0.123 ± 0.094.
For P41A the value was 0.117 ± 0.12.
For P41M the value was -0.06 ± 0.16; for P41V, -0.218 ± 0.12; for P41Q, -0.109 ± 0.18.
For P41H, the abundance fitness was -0.378 ± 0.2.
For P41F the value was 0.034 ± 0.17; for P41G, 0.151 ± 0.1.
The same measure for P41D: 0.022 ± 0.17; for P41S: -0.046 ± 0.1.
In the case of W45M, the abundance fitness was 0.179 ± 0.15.
For W45D the value was -0.313 ± 0.2; for W45R, -0.162 ± 0.09; for W45C, -0.101 ± 0.13.
For W45Q the value was 0.109 ± 0.14.
For W45A the value was 0.005 ± 0.13; for W45I, 0.057 ± 0.19.
On to W45V, for which the abundance fitness was determined as 0.115 ± 0.11.
For W45F the value was -0.159 ± 0.15.
For W45G the value was 0.025 ± 0.085; for W45N, -0.051 ± 0.18.
For W45S the value was 0.098 ± 0.1.
On to W45T, for which the abundance fitness was 0.085 ± 0.16.
The same measure for W45E: 0.083 ± 0.16; for W45P: -0.161 ± 0.22; for W45Y: -0.207 ± 0.18.
The same measure for W45K: -0.483 ± 0.27; for W45H: -0.119 ± 0.21.
In the case of W45L, the abundance fitness is -0.218 ± 0.097.
For C47P the value was -0.657 ± 0.17.
The same measure for C47Y: -0.811 ± 0.22; for C47L: -0.75 ± 0.14.
For C47T the value was -0.43 ± 0.15; for C47F, -0.565 ± 0.24.
C47K: the abundance fitness is -0.81 ± 0.2.
For C47R the value was -0.848 ± 0.11.
Regarding C47N, the abundance fitness was -0.5 ± 0.27.
Regarding C47V, the abundance fitness is -1.11 ± 0.16.
For C47H, the abundance fitness was -0.477 ± 0.33.
For C47W the value was -1.09 ± 0.16; for C47M, -0.882 ± 0.17; for C47A, -0.756 ± 0.12.
The same measure for C47G: -0.867 ± 0.11; for C47E: -0.331 ± 0.14.
For C47S the value was -0.99 ± 0.14.
For the variant C47Q, the abundance fitness is -0.833 ± 0.21.
Consider C47D, for which the abundance fitness is -0.468 ± 0.17.
K52W: the abundance fitness is -0.346 ± 0.14.
On to K52D, for which the abundance fitness was -0.39 ± 0.23.
For K52Q, the abundance fitness was -0.134 ± 0.18.
For K52E, the abundance fitness was 0.136 ± 0.16.
For K52C the value was -0.105 ± 0.16.
For K52P the value was -0.072 ± 0.16; for K52H, 0.286 ± 0.23; for K52A, -0.233 ± 0.12.
The same measure for K52T: 0.06 ± 0.16.
With K52R, the abundance fitness is -0.106 ± 0.11.
The same measure for K52N: -0.007 ± 0.21; for K52G: -0.204 ± 0.12; for K52M: -0.376 ± 0.23.
For K52V the value was -0.176 ± 0.099.
For K52I the value was -0.586 ± 0.21; for K52L, -0.088 ± 0.11.
K52S: the abundance fitness came to 0.161 ± 0.14.
As for G43V, the abundance fitness is -0.375 ± 0.12.
G43F: the abundance fitness was -0.35 ± 0.18.
For G43P the value was -0.209 ± 0.15; for G43A, 0.061 ± 0.12; for G43C, -0.217 ± 0.15.
Take G43L: the abundance fitness is -0.232 ± 0.099.
Regarding G43W, the abundance fitness is -0.164 ± 0.11.
For G43K the value was -0.012 ± 0.2; for G43D, -0.164 ± 0.19; for G43Q, -0.078 ± 0.15.
The same measure for G43T: -0.272 ± 0.15; for G43S: -0.099 ± 0.12; for G43E: 0.179 ± 0.15.
For G43I the value was -0.382 ± 0.22; for G43R, -0.09 ± 0.086; for G43N, -0.076 ± 0.21.
G43M: the abundance fitness is -0.151 ± 0.14.
The same measure for G43H: -0.505 ± 0.26.
The same measure for E38I: -0.106 ± 0.18; for E38Y: -0.093 ± 0.25.
For E38Q, the abundance fitness is -0.19 ± 0.2.
For E38R the value was -0.029 ± 0.1; for E38G, -0.056 ± 0.082.
For E38P the value was -0.143 ± 0.13.
In the case of E38F, the abundance fitness was 0.142 ± 0.18.
For E38A the value was -0.261 ± 0.11.
E38V: the abundance fitness is -0.063 ± 0.11.
For the variant E38N, the abundance fitness is -0.183 ± 0.26.
For E38W the value was -0.281 ± 0.14.
For E38C the value was -0.028 ± 0.11; for E38H, -0.079 ± 0.26; for E38L, -0.197 ± 0.11.
The same measure for E38S: -0.266 ± 0.11.
Regarding E38T, the abundance fitness was -0.657 ± 0.22.
E38D: the abundance fitness is -0.074 ± 0.15.
For E38K the value was -0.244 ± 0.18.
The same measure for E38M: -0.784 ± 0.21; for A40V: -0.093 ± 0.094.
The same measure for A40C: -0.035 ± 0.16; for A40Q: -0.208 ± 0.16; for A40S: -0.126 ± 0.094.
